Data on 3 molecules can be found in patent US20120263728A1.

In experiment [1] the target is human Nav1.7 channel (type IX voltage-gated sodium channel alpha subunit) (human) (UniProt Q15858). Briefly: cell-based or functional assay.
Experiment [2] concerns the target recombinant rat Nav1.7 channels expressed in HEK cells (rat) (UniProt O08562). Briefly: cell-based or functional assay.
Sequence of UniProt O08562 (O08562 whole entry): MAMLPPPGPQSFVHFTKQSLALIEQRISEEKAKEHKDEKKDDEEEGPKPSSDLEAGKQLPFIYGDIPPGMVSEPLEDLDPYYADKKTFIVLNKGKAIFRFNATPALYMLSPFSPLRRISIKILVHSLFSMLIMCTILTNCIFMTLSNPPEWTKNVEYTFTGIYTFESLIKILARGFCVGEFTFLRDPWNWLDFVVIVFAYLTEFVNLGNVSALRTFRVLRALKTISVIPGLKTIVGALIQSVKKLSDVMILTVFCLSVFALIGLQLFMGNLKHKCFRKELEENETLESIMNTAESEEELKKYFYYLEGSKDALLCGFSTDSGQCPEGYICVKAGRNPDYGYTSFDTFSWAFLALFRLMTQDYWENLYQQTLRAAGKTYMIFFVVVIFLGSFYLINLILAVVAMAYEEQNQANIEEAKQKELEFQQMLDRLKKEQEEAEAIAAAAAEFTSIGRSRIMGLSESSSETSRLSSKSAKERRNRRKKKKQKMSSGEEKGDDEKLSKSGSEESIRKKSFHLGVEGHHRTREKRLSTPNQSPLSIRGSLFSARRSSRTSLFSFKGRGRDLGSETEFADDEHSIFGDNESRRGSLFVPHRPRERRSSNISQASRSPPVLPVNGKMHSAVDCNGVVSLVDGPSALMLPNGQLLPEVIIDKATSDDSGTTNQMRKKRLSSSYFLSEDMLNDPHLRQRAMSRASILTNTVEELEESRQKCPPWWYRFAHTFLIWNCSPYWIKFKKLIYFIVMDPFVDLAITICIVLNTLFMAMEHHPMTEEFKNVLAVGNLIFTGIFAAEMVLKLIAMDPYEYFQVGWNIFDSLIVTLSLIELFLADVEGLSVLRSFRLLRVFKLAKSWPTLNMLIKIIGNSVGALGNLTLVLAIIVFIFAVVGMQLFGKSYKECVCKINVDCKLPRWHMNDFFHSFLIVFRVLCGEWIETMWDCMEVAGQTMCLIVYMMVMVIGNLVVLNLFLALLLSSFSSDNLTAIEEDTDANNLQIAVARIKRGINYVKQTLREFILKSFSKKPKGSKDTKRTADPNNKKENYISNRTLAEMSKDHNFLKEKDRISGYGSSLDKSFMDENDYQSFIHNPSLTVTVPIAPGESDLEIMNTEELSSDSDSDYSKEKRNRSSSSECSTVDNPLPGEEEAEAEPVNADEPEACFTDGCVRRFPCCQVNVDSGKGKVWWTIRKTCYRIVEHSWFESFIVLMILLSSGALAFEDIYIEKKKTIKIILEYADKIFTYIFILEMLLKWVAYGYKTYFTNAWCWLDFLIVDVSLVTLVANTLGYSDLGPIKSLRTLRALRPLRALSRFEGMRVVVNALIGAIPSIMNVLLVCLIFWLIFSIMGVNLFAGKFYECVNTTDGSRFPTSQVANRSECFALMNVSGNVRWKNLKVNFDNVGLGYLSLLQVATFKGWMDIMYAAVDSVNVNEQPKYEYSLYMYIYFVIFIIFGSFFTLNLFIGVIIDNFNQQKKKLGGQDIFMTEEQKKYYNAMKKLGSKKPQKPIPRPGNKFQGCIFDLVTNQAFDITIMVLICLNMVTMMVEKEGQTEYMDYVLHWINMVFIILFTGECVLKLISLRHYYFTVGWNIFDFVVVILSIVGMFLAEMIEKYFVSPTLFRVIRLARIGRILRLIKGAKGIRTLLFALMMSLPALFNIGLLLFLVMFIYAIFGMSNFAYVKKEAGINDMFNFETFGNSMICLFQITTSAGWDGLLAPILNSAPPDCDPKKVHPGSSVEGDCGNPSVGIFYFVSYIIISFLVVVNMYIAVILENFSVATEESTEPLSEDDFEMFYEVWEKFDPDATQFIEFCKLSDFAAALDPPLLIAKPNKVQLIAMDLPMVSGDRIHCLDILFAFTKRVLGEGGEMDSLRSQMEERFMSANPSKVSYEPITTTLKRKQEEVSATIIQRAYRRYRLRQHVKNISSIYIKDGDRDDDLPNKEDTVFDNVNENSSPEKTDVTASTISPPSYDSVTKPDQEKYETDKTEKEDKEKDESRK

B1: CA167_01080 (antibody, from another filing, rabbit IgG1, V domains shown)
VH: QSLEESGGRLVTPETPLTLTCTASGIDLSKWPMTWVRQAPGKGLEWIGIIGRSGSTNYASWAKGRFTISKTSTTVDLKMTSPTTEDTATYFCARGGSYYDLWGQGTLVTVS
VL: AQVLTQTASPVSAAVGNTVTITCQSSQSVWKNNDLSWYQQKLGQPPKLLIYYASTLASGVSSRFKASGSGTQFTLTISDVQCDDAGTYYCVGSYDCSSADCNAFGGGTKVVVK
In experiment [1], B1 had a Nav1.7 inhibition (%) at 25 µg/ml, automated patch clamp on HEK cells of 46%. Further, in experiment [2], the inhibition of Nav1.7 currents at 25 µg/ml, automated Patch Clamp turned out to be 26%.

B2: CA167_00983 (antibody, from another filing, rabbit IgG1, V domains shown)
VH: QSVEESGGRLVTPGTPLTLTCTVSGFSLSNYAMSWVRQAPGKGLEWIGIIGKSGSTAYASWAKGRFTISRTSTTVDLEITSPTTEDTATYFCVRFVLLWGPGTLVTVS
VL: AQVLTQTASPVSAAVGGTVTINCQSSQSVYKNNDLAWYQQKPGQPPKLLIYYASTLASGVSSRFKGSGSGTEFTLTISDAQCDDAATYYCLGSYDCSSADCNAFGGGTKVVVK
In experiment [1], B2 registered a Nav1.7 inhibition (%) at 25 µg/ml, automated patch clamp on HEK cells of 41%.

B3: CA167_00932 (antibody, from another filing, rabbit IgG1, V domains shown)
VH: QSLEESGGRLVTPGTPLTLTCTVSGFSLSRYWMSWVRQAPGKGLEWIGNIGGGSGSTLYAPWAKGRSTISKTSTTVDLKITSPTTEDTATYFCGRYVKNGGGYRLDLWGPGTLVTVS
VL: AAVLTQTPSSVSAAVGGTVTIKCQSSQSVYNNNEFSWYQQKPGQPPKLLIYDASKLASGVPSRFSGSGSGTQFTLTISGVQCDDVATYYCLGGYNDDTNRWAFGGGTEVVVE
The molecule B3 displayed a Nav1.7 inhibition (%) at 25 µg/ml, automated patch clamp on HEK cells in experiment [1] of 27%.
